Tested on: hESC-derived EPs
Test: Growth factor treatment of hESC-derived EPs for 3 days, immunofluorescence quantification of marker-positive cells
Format: cell-based, human
Settings: for increase in number of ISL1+ cells: high concentration treatment; for INS+ cell numbers (in words): two concentrations
Method: hESC, ISL1-EGFP Hues8 and H1, were maintained under a feeder-free system on Geltrex (Invitrogen) in TeSR-E8 media (Stemcell Technologies). Cells were passaged at 70-80% confluence using TrypLE (Invitrogen). After dissociation, cells were seeded in TeSR-E8 media+10 μM Y-27632 for 24h. Differentiation was started when cells were 90% confluent. The following media and growth factors/small molecules (see also Table 3) were used: Day1: MCDB-131 media with 0.1% BSA+10 mM glucose+ActivinA and CHIR99021. Day2-3: MCDB-131 media+0.1% BSA+10 mM glucose+ActivinA. Day4-5: MCDB-131+0.1% BSA, 10 mM glucose, VitC+KGF. Day6-9: MCDB-131 2% BSA+5.5 mM glucose+Vit.C+ITS (Invitrogen)+ActivinA+KGF+RA+SANT-1+Noggin. Day10-12: MCDB-131+2% BSA+5.5 mM glucose+VitC+ITS+SANT-1+Noggin+PdBU. Day13-15: MCDB-131+2% BSA+5.5 mM glucose+VitC+ITS+Noggin+AlK5i. EPs were dissociated and seeded as 25,000 cells/well on Geltrex-coated 96-well plates in DMEM media (Invitrogen) with B27 Supplement (Thermo Fisher Scientific), later called B27 media, supplemented with 10 µM Y-27632 for 24h. Growth factors (Table 3) were added to B27 media, at two concentrations, and tested on EPs for 3 days. After 3 days, cells were PBS washed, fixed with 4% PFA/PBS for 20 min at room temperature (RT), washed twice with PBS and stained.
Cells were incubated with 5% donkey serum (Jackson ImmunoResearch Laboratories) in PBST (PBS+0.1% Triton-X) for 30 min to avoid nonspecific binding of the antibody and to permeabilize the cells. Primary antibodies, diluted in 5% donkey serum in PBST, were then added and incubated at 4° C. overnight with shaking. After primary antibody incubation, cells were washed 3 times with PBST and secondary antibodies conjugated with Alexa-Fluor Dyes (Jackson ImmunoResearch Laboratories) and diluted in 5% donkey serum in PBST were added to the cells for 30 min at RT. Then, cells were thrice washed with PBST and nuclei were stained with Dapi (Roche Diagnostics). For imaging, Leica DMI6000 or confocal Leica TCS SPE was used. Images were initially processed by LAS X software and then further analyzed and quantified using ImageJ software (NIH, W Rasband, http://rsb.info.nih.gov/ij) using cell counter plug-in. Typically, at least 5 randomly selected images were counted per condition.

[1] = 200 ng/ml Gremlin1, 3 days, vs untreated

HGF: growth factor (R&D), 50 or 100 ng/ml
effect on the number of CHGA+ and INS+ cells (in words) (3 days treatment of EPs): little or no effect
increase in number of ISL1+ cells (3 days): ~2 fold

IGF: growth factor (R&D), 10 or 50 ng/ml
effect on the number of CHGA+ and INS+ cells (in words) (3 days treatment of EPs): little or no effect
increase in number of ISL1+ cells (3 days): ~2 fold

THBS2: growth factor (R&D), 5 or 1 μg/ml
effect on the number of CHGA+ and INS+ cells (in words) (3 days treatment of EPs): little or no effect
increase in number of ISL1+ cells (3 days): ~2 fold

B1: WNT5B: a WNT5A paralog (protein, UniProt Q9H1J7 18-359, looked up)
Protein Wnt-5b: QLLTDANSWWSLALNPVQRPEMFIIGAQPVCSQLPGLSPGQRKLCQLYQEHMAYIGEGAKTGIKECQHQFRQRRWNCSTADNASVFGRVMQIGSRETAFTHAVSAAGVVNAISRACREGELSTCGCSRTARPKDLPRDWLWGGCGDNVEYGYRFAKEFVDAREREKNFAKGSEEQGRVLMNLQNNEAGRRAVYKMADVACKCHGVSGSCSLKTCWLQLAEFRKVGDRLKEKYDSAAAMRVTRKGRLELVNSRFTQPTPEDLVYVDPSPDYCLRNESTGSLGTQGRLCNKTSEGMDGCELMCCGRGYNQFKSVQVERCHCKFHWCCFVRCKKCTEIVDQYICK
INS+ cell numbers (in words) (3 days treatment of EPs): increased INS+ cell numbers in a dose-dependent manner

B2: Endocan: niche-derived secreted factor (R&D), 1 or 5 ng/ml (protein, UniProt Q9NQ30 20-184, looked up)
Endothelial cell-specific …: WSNNYAVDCPQHCDSSECKSSPRCKRTVLDDCGCCRVCAAGRGETCYRTVSGMDGMKCGPGLRCQPSNGEDPFGEEFGICKDCPYGTFGMDCRETCNCQSGICDRGTGKCLKFPFFQYSVTKSSNRFVSLTEHDMASGDGNIVREEVVKENAAGSPVMRKWLNPR
number of CHGA+ cells (in words) (3 days treatment of EPs): significant increase
numbers of ISL1-eGFP, CHGA+, INS+ and C-peptide+ cells over untreated controls (in words) (3 days treatment of EPs): increased
INS+ cell numbers (in words) (3 days treatment of EPs): moderate effect

B3: SERPINF1: niche-derived secreted factor (R&D), 500 ng/ml or 1 μg/ml (protein, UniProt P36955 20-418, looked up)
Pigment epithelium-derived …: QNPASPPEEGSPDPDSTGALVEEEDPFFKVPVNKLAAAVSNFGYDLYRVRSSTSPTTNVLLSPLSVATALSALSLGAEQRTESIIHRALYYDLISSPDIHGTYKELLDTVTAPQKNLKSASRIVFEKKLRIKSSFVAPLEKSYGTRPRVLTGNPRLDLQEINNWVQAQMKGKLARSTKEIPDEISILLLGVAHFKGQWVTKFDSRKTSLEDFYLDEERTVRVPMMSDPKAVLRYGLDSDLSCKIAQLPLTGSMSIIFFLPLKVTQNLTLIEESLTSEFIHDIDRELKTVQAVLTVPKLKLSYEGEVTKSLQEMKLQSLFDSPDFSKITGKPIKLTQVEHRAGFEWNEDGAGTTPSPGLQPAHLTFPLDYHLNQPFIFVLRDTDTGALLFIGKILDPRGP
numbers of ISL1-eGFP, CHGA+, INS+ and C-peptide+ cells over untreated controls (in words) (3 days treatment of EPs): increased

B4: PDPN: podoplanin, a mucin-type transmembrane glycoprotein (protein, UniProt Q86YL7 23-162, looked up)
Podoplanin: ASTGQPEDDTETTGLEGGVAMPGAEDDVVTPGTSEDRYKSGLTTLVATSVNSVTGIRIEDLPTSESTVHAQEQSPSATASNVATSHSTEKVDGDTQTTVEKDGLSTVTLVGIIVGVLLAIGFIGAIIVVVMRKMSGRYSP
numbers of ISL1-eGFP, CHGA+, INS+ and C-peptide+ cells over untreated controls (in words) (3 days treatment of EPs): increased
increase in number of CHGA+ cells (high concentration, 3 days): 3 fold
increase in number of INS+ cells (high concentration, 3 days): 3 fold

B5: Gremlin1: a BMP antagonist upregulated in Wk17.5h and 20.1 M-E primary cells (protein, UniProt O60565 25-184, looked up)
Gremlin-1: KKKGSQGAIPPPDKAQHNDSEQTQSPQQPGSRNRGRGQGRGTAMPGEEVLESSQEALHVTERKYLKRDWCKTQPLKQTIHEEGCNSRTIINRFCYGQCNSFYIPRHIRKEEGSFQSCSFCKPKKFTTMMVTLNCPELQPPTKKKRVTRVKQCRCISIDLD
increase in CHGA+ cell numbers [1]: 5 fold
increase in INS+ cell numbers [1]: 5 fold
decrease in the number of GCG+ cells (3-day EP treatment, vs untreated control): 3 fold
